[ ]: non-standard residue; d: D form. The star is where a group is joined. FITC = O=C1OC2(c3ccc(O)cc3Oc3cc(O)ccc32)c2ccc(NC(=S)*)cc21; Ahx = NCCCCCC(=O)O
Key:
Nur77 = biological target: T1, Nur77 (Homo sapiens (Human), UniProt P22736 1-598); assay: not described
T1 construct: also called TR3; NGFI-B

GST-Bcl-2 [1] = biological target: T2, GST-Bcl-2 (UniProt P08515 1-218 = GST; P10415 1-218); assay: circular dichroism of GST-Bcl-2 with peptide, non-linear regression, one-site-binding model
T2 construct: Bacterially expressed, purified GST fusion used in FP, CD and in vitro immunoprecipitation; also called purified GST-Bcl-2 protein; bacterially expressed Bcl-2
T2 sequence (P08515 1-218, tags or fused parts left off): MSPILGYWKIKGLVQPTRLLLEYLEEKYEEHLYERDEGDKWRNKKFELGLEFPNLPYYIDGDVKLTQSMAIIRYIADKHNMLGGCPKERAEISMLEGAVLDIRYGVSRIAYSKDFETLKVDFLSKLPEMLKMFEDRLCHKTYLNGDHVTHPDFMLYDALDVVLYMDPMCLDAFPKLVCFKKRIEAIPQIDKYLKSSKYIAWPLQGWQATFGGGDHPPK
Procedure: We then explored whether the Bcl-2 conformational change by Bcl-2 was a direct consequence of Nur77 binding. Experiments were performed to determine whether NuBCPs could induce a conformational change of bacterially expressed Bcl-2. To this end, the ability of purified GST-Bcl-2 protein to react with anti-Bcl-2/BH3 antibody in the presence of NuBCP was analyzed by immunoprecipitation assay. […] In contrast, NuBCP-9, D-NuBCP-9 and NuBCP-9/AA had no effect on CD spectra for GST or Bcl-XL (FIGS. 9-11). Thus, the NuBCP-induced Bcl-2 conformational change observed in cells can be accounted for by direct binding of NuBCPs to Bcl-2.
Circular dichroism (CD) spectroscopy. Stock solutions of 3 mM peptide in 30% acetonitrile/water were added to 0.5 mL of 2 μM purified GST-proteins in PBS, pH 7.6. CD spectra were obtained in a 0.2 cm pathlength cell at 20° C. using an AVIV 62 DS spectropolarimeter for a wavelength range from 200 to 260 nm with a step size of 1 nm averaged for 5 sec. Three spectra were corrected for background and averaged for each sample. The Kd was determined using nonlinear regression analysis for a one-site-binding model (χ2>0.98). Stoichiometry was determined from a […] (Jones, G. et al. 2002 Tet. Let. 43 :6079-6082).

GST = biological target: T3, GST (UniProt P08515 1-218 = GST); assay: fluorescence polarization
T3 construct: Control protein in FP and CD assays; also called GST protein
T3 sequence (P08515 whole entry): as the sequence (P08515 1-218, tags or fused parts left off) above
Procedure: (§1) Fluorescence polarization (FP) analysis was used to determine whether NuBCPs interacted directly with Bcl-2. […] GST-Bcl-2, but not GST-Bcl-XL or GST, induced a concentration-dependent FP of FITC-NuBCP-9-r8 and FITC-D-NuBCP-9-r8, while FITC-NuBCP-9/AA-r8 was little affected (FIG. 2C-E). […] Thus, NuBCP-9 and D-NuBCP-9 bind directly and competitively to Bcl-2.
(§2) Fluorescence polarization (FP) assays. GST-Bcl-2, GST-Bcl-XL, or GST protein was briefly incubated with FITC-conjugated peptide with or without competitors in Greiner Fluotrac 600 96-well microplates. Fluorescence polarization was recorded using an Analyst HT 96-384 microplate reader (Molecular Devices, Sunnyvale, Calif.) with excitation wavelength set at 485 nm and dynamic polarizer for emission at 530 nm.

GST-Bcl-XL = biological target: T4, GST-Bcl-XL (UniProt P08515 1-218 = GST; Q07817 1-211); assay: fluorescence polarization
T4 construct: Control protein in FP and CD assays
T4 sequence (P08515 1-218, tags or fused parts left off): as above
Procedure: as §1, §2

Bcl-2 [2] = biological target: T5, Bcl-2 (UniProt P10415 1-239); assay: immunoprecipitation
T5 construct: Cellular Bcl-2 in co-immunoprecipitation and immunostaining assays; also called endogenous Bcl-2
T5 sequence (P10415 whole entry): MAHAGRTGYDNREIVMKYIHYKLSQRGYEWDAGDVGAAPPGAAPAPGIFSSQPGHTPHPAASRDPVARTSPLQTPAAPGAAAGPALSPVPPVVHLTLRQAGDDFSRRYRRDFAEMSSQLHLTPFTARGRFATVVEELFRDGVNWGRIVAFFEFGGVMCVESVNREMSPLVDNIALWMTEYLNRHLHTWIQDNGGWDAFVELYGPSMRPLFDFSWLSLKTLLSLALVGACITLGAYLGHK

GST-Bcl-2 [3] = biological target: T2, GST-Bcl-2; assay: fluorescence polarization competition
Procedure: as §1, §2

Bcl-2 [4] = biological target: T5, Bcl-2; assay: not described at this place

B1: Bcl-B (other, UniProt Q9HD36 1-204, looked up)
chain: MVDQLRERTTMADPLRERTELLLADYLGYCAREPGTPEPAPSTPEAAVLRSAAARLRQIHRSFFSAYLGYPGNRFELVALMADSVLSDSPGPTWGRVVTLVTFAGTLLERGPLVTARWKKWGFQPRLKEQEGDVARDCQRLVALLSSRLMGQHRAWLQAQGGWDGFCHFFRTPFPLAFWRKQLVQAFLSCLLTTAFIYLWTRLL
**Q.** Does B1 bind (Nur77)?
**A.** Result: binds

**Q.** With Ac-FSRSLHSLL-NH2 [NuBCP-9 (unconjugated)] as the binder, how does the Kd (GST-Bcl-2 [1]) read?
**A.** The Kd was 2100 nM.

B2: FITC-NuBCP-9-r8 (peptide)
peptide: {FITC}-FSRSLHSLLG[Ahx][dR][dR][dR][dR][dR][dR][dR][dR]-NH2
modifications: not fully specified
notes: The point of attachment of FITC is not described beyond the name; also called FITC-L-NuBCP-9-r8
**Q.** Does B2 bind (GST)?
**A.** Result: no binding

**Q.** Does B2 bind (GST-Bcl-XL)?
**A.** Result: no binding

B3: NuBCP-20-r8 (peptide)
peptide: GDWIDSILAFSRSLHSLLVDKKCXRRRRRRRR
modifications: not fully specified; N-terminal acetyl; C-terminal Cys thiol linked to chloroacetylated 6-aminohexanoyl (X); eight D-arginines (r8)
notes: also called NuBCP-20-r8-peptide; TR3 peptide
**Q.** Does B3 bind (Bcl-2 [2])?
**A.** Result: binds

**Q.** Does Ac-ASRSLHSLA-NH2 (Unconjugated form) [NuBCP-9/AA (unconjugated)] bind (GST-Bcl-2 [3])?
**A.** Result: no binding

B4: Bfl-1 (other, UniProt Q16548 1-175, looked up)
chain: MTDCEFGYIYRLAQDYLQCVLQIPQPGSGPSKTSRVLQNVAFSVQKEVEKNLKSCLDNVNVVSVDTARTLFNQVMEKEFEDGIINWGRIVTIFAFEGILIKKLLRQQIAPDVDTYKEISYFVAEFIMNNTGEWIRQNGGWENGFVKKFEPKSGWMTFLEVTGKICEMLSLLKQYC
**Q.** Does B4 bind (Nur77)?
**A.** Result: binds

B5: Nur77 fragment DC-3 (other)
chain: GLVLHRLQCARGFGDWIDSILAFSRSLHSLLVDVPAFACLSALVLITDRHGLQEPRRVEELQNRIASCLKEHVAAVAGEPQPASCLSRLLGKLPELRTLCTQGLQRIFYLKLEDLVPPPPIIDKIFMDTLPF
**Q.** Does B5 bind (Bcl-2 [4])?
**A.** Result: binds

From US20070054863A1 (SANFORD BURNHAM MEDICAL RESEARCH INSTITUTE, published 2007)
